Measurements: patent US20250154283A1 (published 2025)
Where a chain is given by its changes, count along the chain named.

T1: biotinylated human VWF cysteine knot (CK) domain construct (human, biotin on the in vitro biotinylation tag (residue not stated); one N-glycan)
T1 construct: Disulfide-linked homodimer; also called biotinylated human VWF CK domain; human VWF CK domain construct
T1 chain: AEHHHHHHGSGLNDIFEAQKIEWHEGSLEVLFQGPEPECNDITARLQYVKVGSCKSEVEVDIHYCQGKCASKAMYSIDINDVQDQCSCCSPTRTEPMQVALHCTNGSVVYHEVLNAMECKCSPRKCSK

B1: Lib4_P2_H3_scFv (scFv, not shown: small tags and cut ends)
scFv: QVQLQESGPGLVKPSQTLSLTCTVSGSTFGDYAWSWIRQPPGKGLEWIGYINHIGNADYNPSLKSRVTMSVDTSKNQFSLKVNSVTAADTAVYYCARDGVESPEVPNYYYYGMDVWGQGTTVTVSSSGGSTITSYNVYYTKLSSSGTEIVMTQSPATLSLSPGERATLSCRASHSIGSNLAWYQQKPGQAPRLLIYDATNRAPGIPARFSGSGSGTDFTLTISSLEPEDFAVYYCQQSYTNPTFGGGTKVEIK
B2: 1374_Lib8_scFv (scFv, not shown: small tags and cut ends)
scFv: EVQLVESGGGLVQPGRSLRLSCAASGVDFSTYAMHWVRQAPGKGLEWVSAISSSGAYTDYADSVEGRFTISRDNAKNSLYLQMNSLRAEDTAVYYCATDRGPFSGYGTQGWFDPWGQGTLVTVSSSGGSTITSYNVYYTKLSSSGTDIQMTQSPSSLSASVGDRVTITCRASQTIRSYLAWYQQKPGKAPKLLIYGASDLQSGVPSRFSGSGSGTDFTLTISSLQPEDVATYYCQQYANFPITFGGGTKVEIK
B3: 1405_Lib8_scFv (scFv, not shown: small tags and cut ends)
scFv: B2 scFv with Q173R, T174D, R176T, G196H, D199T, Q201E, S202A, A238G, N239D, I242P
B4: Lib4_P2_A5_scFv (scFv, not shown: small tags and cut ends)
scFv: QVQLQESGPGLVKPSQTLSLTCTVSGSSISSSSDYWSWIRQPPGKGLEWIGYIDISGDADYNPSLKSRVTMSVDTSKNQFSLKVNSVTAADTAVYYCARHLSSGWYGTYYFDYWGQGTLVTVSSSGGSTITSYNVYYTKLSSSGTEIVMTQSPATLSLSPGERATLSCRASQNIHSNLAWYQQKPGQAPRLLIYDASSRATGIPARFSGSGSGTDFTLTISSLEPEDFAVYYCQQGYTKPLTFGGGTKVEIK
B5: 8226_Lib8_scFv (scFv, not shown: small tags and cut ends)
scFv: EVQLVESGGGLVQPGRSLRLSCAASGFNFHNYDMHWVRQAPGKGLEWVSAISGGAVSTDYADSVEGRFTISRDNAKNSLYLQMNSLRAEDTAVYYCARSSWYGGQIDFWGQGTLVTVSSSGGSTITSYNVYYTKLSSSGTDIQMTQSPSSLSASVGDRVTITCRASQDISGWLAWYQQKPGKAPKLLIYAASSLQDGVPSRFSGSGSGTDFTLTISSLQPEDVATYYCQQSYRIPSTFGGGTKVEIK
B6: Lib8_P4_C10_scFv (scFv, not shown: small tags and cut ends)
scFv: EVQLVESGGGLVQPGRSLRLSCAASGFNFHNYDMHWVRQAPGKGLEWVSAISGSSDTMDYADSVEGRFTISRDNAKNSLYLQMNSLRAEDTAVYYCVRASWYGTFFDYWGQGTLVTVSSSGGSTITSYNVYYTKLSSSGTDIQMTQSPSSLSASVGDRVTITCRASQDISGWLAWYQQKPGKAPKLLIYAASSLQDGVPSRFSGSGSGTDFTLTISSLQPEDVATYYCQQSYRIPSTFGGGTKVEIK
B7: 1081_Lib8_scFv (scFv, not shown: small tags and cut ends)
scFv: EVQLVESGGGLVQPGRSLRLSCAASGFNFHNYDMHWVRQAPGKGLEWVSAISGGAVSTDYADSVEGRFTISRDNAKNSLYLQMNSLRAEDTAVYYCARSSWYGGQIDFWGQGTLVTVSSSGGSTITSYNVYYTKLSSSGTDIQMTQSPSSLSASVGDRVTITCRASESVSSWLAWYQQKPGKAPKLLIYGASTLEGGVPSRFSGSGSGTDFTLTISSLQPEDVATYYCQQAYRTPVTFGGGTKVEIK
B8: 9621_Lib8_scFv (scFv, not shown: small tags and cut ends)
scFv: EVQLVESGGGLVQPGRSLRLSCAASGFSFSMYAMHWVRQAPGKGLEWVSAISPSGDATDYADSVEGRFTISRDNAKNSLYLQMNSLRAEDTAVYYCARGMQDYGHYYYYYMDVWGKGTTVTVSSSGGSTITSYNVYYTKLSSSGTDIQMTQSPSSLSASVGDRVTITCRASQDISTSLAWYQQKPGKAPKLLIYGASSLETGVPSRFSGSGSGTDFTLTISSLQPEDVATYYCQQGYIAPRTFGGGTKVEIK

Molecular target: T1, biotinylated human VWF cysteine knot …
Test: SPR, scFv captured on anti-SV5, pH 7.4

Binder | binding result
B1 | binds
B2 | binds
B3 | binds
B4 | binds
B5 | binds
B6 | binds
B7 | binds
B8 | binds
